# Measured values taken from the supplement of paper PMC9170038.
# Test system: MS2 coat protein
# Experiment: apparent KD of MS2 coat protein; higher = weaker reporter binding
# Settings: Eterna round: R107; input ligand: theophylline 20 uM
# Method in brief: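 Titration buffer: 100 mM Tris-HCl pH 7.5, 80 mM KCl, 4 mM MgCl2, without or with constant ligand. Designed RNA switches transcribed on-chip from Illumina sequencing clusters received SNAP-549-labelled MS2 coat protein in twofold steps from 0.7 or 1.5 nM to 3 µM. Apparent KD is the median per design of fits to normalised cluster binding curves.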
row,Sequence,apparent KD of MS2 coat protein [nM]
1,UCAGUGCAAGGAAGGAGCGGGUACAUGAGGAUCACCCAUGUGCAAGUGGUGAGCGUUUGUGCCCAGGUAGGUCGCCUAGCCUGGU [XArg-B18],172
2,UUGGGUUUGCGAAGGAGCGGGAAAUAUAUAUAUAUAAUCCUAACAUGAGGAUCACCCAUGUCCCAGGUAGGUCGCGCGGGUUUGG [12.M],61.9
3,UUGCCCAGUACGGCCGCCACUGUGUGCAGGGAGCCCAGGUCCACAUGAGGAUCACCCAUGUACAACAGGACCGGGUACUUGCAAU [Usdizaqu],12.7
4,AUCGUACCUCAUGAUACCAGCAUGUGAUCAUAACAUGAGGAUCACCCAUGUAAUCAGUGAUGCCCUUGGCAGCGUAGUCGAUACA [Same State - Theophylline B (Freestyle 8)],161
5,GAUUUUACAAAAGUAAAAUCAGUGGGUGAACGAGGACCGGUACGGCCGCCACUCGGACAUGAGGAUCACCCAUGUCCAUGUGAAA [AstrosExyTryA#21],18.4
6,AAGAUAAGUACUGAUACCAGAGACAUGAGGAUCACCCAUGUCAAAUAAUAAUACCUCAGACUCCCUUGGCAGCAGGAUAAAUGAG [Exclusion Theophylline B GF1],19.9
7,CUCCCACUAUCUGAUACCAGAGGAUAAACGUAGACUGGGAACAUGAGGAUCACCCAUGUCCUCCCUUGGCAGCAGGACUUAUCUC [theeternabot_exclusion_MS2_Theo_B_29],29.9
8,UUAAGAGGCUAUCAAAUUUGAUUUUGUGAUACCAGAAUAAUUUUAUUCCCUUGGCAGCAUGACAUGAGGAUCACCCAUGUGUCUU [SSTheo A #2],40.2
9,AACCGAGGCUAUCCACAAAGAAAAUGUGAUACCAGAAUAAUUUUAUUCCCUUGGCAGCAUGACAUGAGGAUCACCCAUGUGUCUU [SSTheo A #5],39.8
10,AGCGGCUCGAAAGAGUCGCACUCAUGUGAAGGAGCGCCCGUAAGGGCAGGUAGGUCGCACAUGAGGAUCACCCAUGUACCUUCUA [MAT - Exclusion Arginine A - Mod of Eli - D20],255
11,CAAACAUGAGGAUCACCCAUGUAAUCAGAUACCAGUGACGAAAGUCACCCUUGGCAGCUGAUUACUUUAGUUCUAAGGUGUUUGA [EThA NP+V+V2 #5 +-Same Structure],116
12,UGAUACCAGUCGGCCGCCACUAUGCUAGAUACUAGCAAUAAAGGGCGACAUGAGGAUCACCCAUGUAGGACCGGGACUGGUAUCU,14.1
13,AAACGUUGCUCAGAUACCAGACAUGAGGAUCACCCAUGUACCAAGGUAACCGAAAGGCAUGUCCCUUGGCAGCUGAGCAACGAAA [MAT - Exclusion Theophlline B - Mod of Eli - D16],21.4
14,AUACAUGAGGAUCACCCAUGUCAUUCAGAAGGAGCGUCAUUUUAGACAGGUAGGUCGCUGUUAUUGGUAUUAUACUUUAUGUUUA [JR_ExcArginiA_Sub024],34.9

# Same assay, conditions: Eterna round: R107; input ligand: theophylline 2 mM
row,Sequence,apparent KD of MS2 coat protein [nM]
1,CCUCGGGACCGAAGGAGCGAGAUAACAACAAUGGGUCUCUACACAUGAGGAUCACCCAUGUCUCAGGUAGGUCGCGGUACCUUAG [Exclusion Arginine B GF23],491
2,AUGCUUGUCAGAAGGAGCGUCUUUAACAUGAGGAUCACCCAUGUAUCAUGGAAUUUGAUGAGACAGGUAGGUCGCUGAAUAGUAA [JR_SSArginiB_Sub021],34.5
3,GUACAUGAGGAUCACCCAUGUAUAGUUGAAGGAGCGACCAGAGGGUCAGGUAGGUCGCAGCACAUGGCGUAAACCCGUGUAUGCC [#1 Exclusion - Arginine A Attempt #23 (Inspired by Pi)],24.9
4,GGUUGAUGACAUGAGGAUCACCCAUGUAGGCGAGGACCGGUACGGCCGCCACUCGACAUGAGGAUCACCCAUGUCGGCGUCCGUG,18
5,CGAGUAGGUUCAAUCGAAUAACGGUUUUCGCGAGGACCGGUACGGCCGCCACUCGUGUGAUAUCACACAUGAGGAUCACCCAUGU [3'end-1],68
6,GGAGCUACGUCGGCCGCCACUAGCGGGUAUUGCGUGUACAUGAGGAUCACCCAUGUAAUACGGCCUAGGACCGGGACGUAGCUCC [Raven],14.5
7,GGUUACUCUACGGCCGCCACUGUAAUGUAAAGAUACCUGUACAUGACAUGAGGAUCACCCAUGUACAGGACCGGGUAGUGUAACC [Tryptophan B 17],343
8,UUAUAAGUACCGGUCCUCAGAUCCUCAUGACGAGGACCGGUACGGCCGCCACUCGAAACAUGAGGAUCACCCAUGUAAUAACAUU [Brourdmod19],25.6
9,AACGUAUACAGAAGGAGCGUGAUUUAUAUUACUCAUUCAUAUACAUGAGGAUCACCCAUGUCACAGGUAGGUCGCUGUAUUCGUA [JR_ExcArginiB_Sub021],157
10,UCAUGCAGGUCGGCCGCCACUACACACAUGAGGAUCACCCAUGUAGUUACUGGGUGAAGUGGCAGUAGGACCGGGACCUGCACAC [Brourdmod17],849
11,UGACAUUGCUCAGAUACCAGACAUGAGCAUCAGCCAUGUACCGAGAGUACAUGUUAAAGUGUCCCUUGGCAGCUGAGCAAUGUCU [Mod of Eli's TheoBX5 #AlternateMS2 v4],371
12,UCAGUGCAAGGAAGGAGCGGGUACAUGAGGAUCACCCAUGUGCAAGUGGUGAGCGUUUGUGCCCAGGUAGGUCGCCUAGCCUGGU [XArg-B18],179
13,UUGGGUUUGCGAAGGAGCGGGAAAUAUAUAUAUAUAAUCCUAACAUGAGGAUCACCCAUGUCCCAGGUAGGUCGCGCGGGUUUGG [12.M],54.3
14,UUGCCCAGUACGGCCGCCACUGUGUGCAGGGAGCCCAGGUCCACAUGAGGAUCACCCAUGUACAACAGGACCGGGUACUUGCAAU [Usdizaqu],11.8
15,GAUUUUACAAAAGUAAAAUCAGUGGGUGAACGAGGACCGGUACGGCCGCCACUCGGACAUGAGGAUCACCCAUGUCCAUGUGAAA [AstrosExyTryA#21],20.6
16,AAGAUAAGUACUGAUACCAGAGACAUGAGGAUCACCCAUGUCAAAUAAUAAUACCUCAGACUCCCUUGGCAGCAGGAUAAAUGAG [Exclusion Theophylline B GF1],19.2
17,AGCGGCUCGAAAGAGUCGCACUCAUGUGAAGGAGCGCCCGUAAGGGCAGGUAGGUCGCACAUGAGGAUCACCCAUGUACCUUCUA [MAT - Exclusion Arginine A - Mod of Eli - D20],316
18,UGAUACCAGUCGGCCGCCACUAUGCUAGAUACUAGCAAUAAAGGGCGACAUGAGGAUCACCCAUGUAGGACCGGGACUGGUAUCU,12
19,AUACAUGAGGAUCACCCAUGUCAUUCAGAAGGAGCGUCAUUUUAGACAGGUAGGUCGCUGUUAUUGGUAUUAUACUUUAUGUUUA [JR_ExcArginiA_Sub024],24.7

# Same assay, conditions: Eterna round: R107; input ligand: tryptophan 2.4 mM
row,Sequence,apparent KD of MS2 coat protein [nM]
1,CCUCGGGACCGAAGGAGCGAGAUAACAACAAUGGGUCUCUACACAUGAGGAUCACCCAUGUCUCAGGUAGGUCGCGGUACCUUAG [Exclusion Arginine B GF23],238
2,AUGCUUGUCAGAAGGAGCGUCUUUAACAUGAGGAUCACCCAUGUAUCAUGGAAUUUGAUGAGACAGGUAGGUCGCUGAAUAGUAA [JR_SSArginiB_Sub021],25.7
3,AUUAAUUGUCGUGAUACCAGACUUACAUGAGGAUCACCCAUGUUACUUAAGAUUUUUGUUGUCCCUUGGCAGCACUUUUUAAUUA [JR_Nu_ExcTheophyB_Sub024],23.3
4,GUACAUGAGGAUCACCCAUGUAUAGUUGAAGGAGCGACCAGAGGGUCAGGUAGGUCGCAGCACAUGGCGUAAACCCGUGUAUGCC [#1 Exclusion - Arginine A Attempt #23 (Inspired by Pi)],21.2
5,AUAAUGGGUAUCGGAUUAUCAUGAUAUGAUACCAGAUACUUAGAUAUCCCUUGGCAGCAUGAGGACAUGAGGAUCACCCAUGUAU [#04 Exclusion-TheophyllineA],39.9
6,AUAAGUAAUGUUACGUGUUUAAUUGCAGAUACCAGACUAUACGUUGUCCCUUGGCAGCUGAAUUACAUGAGGAUCACCCAUGUUG [JR_ExcTheophyA_Sub005],25.7
7,AAAUAAAUAACUGAUACCAGUGUACUGACAUGAGGAUCACCCAUGUUGGGUUUGGUUGUACACCCUUGGCAGCAGAAAUAUAAAA [test (nupak],15.1
8,GGAGCUACGUCGGCCGCCACUAGCGGGUAUUGCGUGUACAUGAGGAUCACCCAUGUAAUACGGCCUAGGACCGGGACGUAGCUCC [Raven],13.8
9,AACGUAUACAGAAGGAGCGUGAUUUAUAUUACUCAUUCAUAUACAUGAGGAUCACCCAUGUCACAGGUAGGUCGCUGUAUUCGUA [JR_ExcArginiB_Sub021],108
10,UCAUGCAGGUCGGCCGCCACUACACACAUGAGGAUCACCCAUGUAGUUACUGGGUGAAGUGGCAGUAGGACCGGGACCUGCACAC [Brourdmod17],1090
11,UGACAUUGCUCAGAUACCAGACAUGAGCAUCAGCCAUGUACCGAGAGUACAUGUUAAAGUGUCCCUUGGCAGCUGAGCAAUGUCU [Mod of Eli's TheoBX5 #AlternateMS2 v4],404
12,UCAGUGCAAGGAAGGAGCGGGUACAUGAGGAUCACCCAUGUGCAAGUGGUGAGCGUUUGUGCCCAGGUAGGUCGCCUAGCCUGGU [XArg-B18],159
13,UUGGGUUUGCGAAGGAGCGGGAAAUAUAUAUAUAUAAUCCUAACAUGAGGAUCACCCAUGUCCCAGGUAGGUCGCGCGGGUUUGG [12.M],51.2
14,AUCGUACCUCAUGAUACCAGCAUGUGAUCAUAACAUGAGGAUCACCCAUGUAAUCAGUGAUGCCCUUGGCAGCGUAGUCGAUACA [Same State - Theophylline B (Freestyle 8)],123
15,GAUUUUACAAAAGUAAAAUCAGUGGGUGAACGAGGACCGGUACGGCCGCCACUCGGACAUGAGGAUCACCCAUGUCCAUGUGAAA [AstrosExyTryA#21],61.9
16,AAGAUAAGUACUGAUACCAGAGACAUGAGGAUCACCCAUGUCAAAUAAUAAUACCUCAGACUCCCUUGGCAGCAGGAUAAAUGAG [Exclusion Theophylline B GF1],12.1
17,CUCCCACUAUCUGAUACCAGAGGAUAAACGUAGACUGGGAACAUGAGGAUCACCCAUGUCCUCCCUUGGCAGCAGGACUUAUCUC [theeternabot_exclusion_MS2_Theo_B_29],22.2
18,UUAAGAGGCUAUCAAAUUUGAUUUUGUGAUACCAGAAUAAUUUUAUUCCCUUGGCAGCAUGACAUGAGGAUCACCCAUGUGUCUU [SSTheo A #2],34.6
19,AACCGAGGCUAUCCACAAAGAAAAUGUGAUACCAGAAUAAUUUUAUUCCCUUGGCAGCAUGACAUGAGGAUCACCCAUGUGUCUU [SSTheo A #5],32.8
20,AGCGGCUCGAAAGAGUCGCACUCAUGUGAAGGAGCGCCCGUAAGGGCAGGUAGGUCGCACAUGAGGAUCACCCAUGUACCUUCUA [MAT - Exclusion Arginine A - Mod of Eli - D20],241
21,CAAACAUGAGGAUCACCCAUGUAAUCAGAUACCAGUGACGAAAGUCACCCUUGGCAGCUGAUUACUUUAGUUCUAAGGUGUUUGA [EThA NP+V+V2 #5 +-Same Structure],38.7
22,AAACGUUGCUCAGAUACCAGACAUGAGGAUCACCCAUGUACCAAGGUAACCGAAAGGCAUGUCCCUUGGCAGCUGAGCAACGAAA [MAT - Exclusion Theophlline B - Mod of Eli - D16],12.5
23,AUACAUGAGGAUCACCCAUGUCAUUCAGAAGGAGCGUCAUUUUAGACAGGUAGGUCGCUGUUAUUGGUAUUAUACUUUAUGUUUA [JR_ExcArginiA_Sub024],28.9
